Changes are numbered by the printed parent chain.
Assays:
[1] = target: T1, human Factor XIa (blood-derived, Haematologic Technologies Inc.) (human, UniProt P03951 19-387; P03951 388-625); experiment: ELISA, wells coated with hFXIa, anti-human IgG HRP, OD 450
T1 construct: It was biotinylated via primary amines for selections, Octet and Biacore; also called FXIa; human FXIa

[2] = target: T1, human Factor XIa (blood-derived, …); experiment: SPR (Biacore T200), biotinylated FXIa captured on a CAP chip, Fab as analyte, 37 C
[3] = target: T1, human Factor XIa (blood-derived, …); experiment: SPR (Biacore T200), biotinylated FXIa captured on a CAP chip, IgG as analyte, 25 C
Cyno FXI = target: T2, Cyno FXI (Macaca fascicularis, UniProt A0A2K5VVW4); experiment: ELISA, wells coated with cynomolgus FXI (zymogen), anti-human IgG HRP, OD 450
T2 construct: coating antigen 'FXI' of the chart titled 'Cyno FXI/FXIA'; also called cynomolgus monkey FXI (zymogen)

B1: Clone 24 IgG (antibody, V domains shown)
VH: EVQLVQSGAEVKKPGASVKVSCKASGYTFTGYYMHWVRQAPGQGLEWMGWIDPDSGDTNYAQKFQGRVTMTRDTSISTAYMELSRLRSDDTAVYYCARLASGFRDYWGQGTLVTVSS
VL: DIVMTKSPSSLSASVGDRVTITCRASQGIRNDLGWYQQKPGKAPKRLIYAASSLQSGVPSRFSGSGSGTEFTLTISSLQPEDFATYYCLQHDIYASTFGPGTKVDIKR
notes: also called C24
In the case of B1, the “EC50 (read off the curve)” value [1] is reported as about 1 ng/mL.

B2: DEF Fab (Fab, V domains shown)
VH: B1 VH with S55E
VL: B1 VL with R108T
B2 showed a Kd [2] of 0.0339 nM.

B3: C24 Fab (Fab, V domains shown)
VH: B1 VH
VL: B1 VL
notes: Fab format of clone 24; also called clone 24 Fab; anti-FXIa C24 Fab
Binder B3 has a Kd [2] of 0.0152 nM.

B4: D4 IgG (antibody, V domains shown)
VH: not shown
VL: B1 VL with K6Q
notes: also called D4 mAb; D4 anti-FXIa mAb
In the case of B4, the Kd [3] is reported as 0.93 nM and the binding result (Cyno FXI) is reported as “no binding (tested: not printed)”.
